Source: the supplement of paper PMC9170038

Tested on: K4 kissing-loop RNA reporter
Assay: apparent KD of K4 kissing-loop reporter; higher = weaker reporter binding
Settings: Eterna round: R107
Description: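 RNA-MaP round R107: designed RNA switches with theophylline, tryptophan, arginine or FMN aptamers are transcribed on-chip within common flanks. They are titrated with a labelled K4 kissing-loop RNA reporter in RNA-MaP buffer (100 mM Tris pH 7.5, 80 mM KCl, 4 mM MgCl2), without ligand or with the indicated ligand. Median apparent KD per design.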

[1] = input ligand: theophylline 20 uM
[2] = input ligand: tryptophan 2.4 mM
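Further: bound reporter read as fluorescence of individual clusters on recovered sequencing chips by microscopy, with normalized cluster intensities fitted with a binding model.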

| Sequence | apparent KD of K4 kissing-loop reporter (input ligand: FMN 200 uM) [nM] | apparent KD of K4 kissing-loop reporter (input ligand: arginine 13.2 mM) [nM] | apparent KD of K4 kissing-loop reporter (input ligand: none) [nM] | apparent KD of K4 kissing-loop reporter [1] [nM] | apparent KD of K4 kissing-loop reporter [2] [nM] |
| --- | --- | --- | --- | --- | --- |
| UGUAUGUGAUUUGAUACCAGACCAUCUUGUGAGAAAUGAGUGAUGUUUAUUUUGGUUUGGGUCCCUUGGCAGCAAAUCGCAUACU [KL-SSTheoB24] | 507 | 356 | 505 | 419 | 439 |
| UGUCAUUGGUCGGCCGCCACUCCGUAACGAGUGAUGUUCUAAAAGACGGAUCGAAAGAUCUGUCGGAGGACCGGGACCGAUGACU [FiskerMod 7 - Jieux - Same State - Tryptophan B] | 725 | 149 | 448 | 199 | 900 |
| UGAUACCAGACUGAUACCAGCCAGUGAUGUUGGCUAAUCCAAGAAGGAGUCAAAGACUCCGGCCCUUGGCAGCAGUCUGGUAUCU [TheoBX 3 #SwitchBubble #StaticStem] | 117 | 104 | 111 | 110 | 109 |
| AGCGAGUGAUGUUCGCUGAUCAUGUGAAGUUAGGAUAUAUACUUGCAUAGAAGGAACUAUUACAUGACAUUAGAGGCAGUAGUUC [FMN A SS t7b] | 165 | 173 | 167 | 171 | 128 |
| CGUAGCAGACGAAGGAGCGGCUACCUGAAUCAGGGUGAUGCCUGAGUGAUGUUCAGGUAAAGCCAGGUAGGUCGCGUCUGCUACG [Arg B Ex t9a] | 201 | 203 | 232 | 235 | 210 |
| ACGUAGUUCUAGGAUACCAGCCAAGGUGCCAGGACAAAAGUCCUGGCAGUCAGUGAUGUUGGCCCUUGGCAGCCUAGAACUACGA [Omei KL Theo B Exc B v8] | 176 | 196 | 215 | 209 | 218 |
| UGUCAUUGGUCGGCCGCCACUAAAAUAAAAGAGUGAUGUUCUUAAAAGACGGACAAAGUCUGUCAUAGGACCGGGACCGAUGACU [TrypBS 23 #SwitchBubble #StaticStem] | 547 | 425 | 529 | 436 | 202 |
| UGUACCGAGUCAGGAUAUGGCGUCGAAAGACGAAUCUUAGUGAUGUUAGGGAUCUGCGAAAGCAGUUCAGAAGGGACUUGGUACU [FmnBS 26 U37+U67] | 349 | 427 | 506 | 556 | 515 |
| UCCUGCAAUCGACCACGAAAGUGGAUCGAUACCAGAGUCGAAAGACUCCCUUGGCAGCGAGUGAUGUUCGAAGCAGGUAAAUAAA [#SwitchBubble 22 #K4Late] | 520 | 383 | 453 | 464 | 383 |
| AUAACAAUCUGAAGGAGCGAGAAAGCAGUGAUGUUGCAAAGGCGAGUGAUGUUCGCAAUAACUCAGGUAGGUCGCAGAAACAAGA [Same State Arginine B] | 142 | 142 | 187 | 193 | 119 |
| AUUUAGACGAGUGAUGUUCGUGUUAUUACAGAGGAUAUGCGUAAAAGCAGAAGGCUGUAUUUAUAUUUGUUAUGUAAUUUUAAAA [JR_ExcFMNA_Sub006] | 75.2 | 105 | 85.9 | 94 | 63.9 |
| GCCGUAGAUGGAAGGAGCGUGAAUGGCCUCUAUCCAAAGUGAUGUUUUGUUGAAGACUGUUCACAGGUAGGUCGCCAUCUACGGC | 165 | 125 | 135 | 135 | 140 |
